We go through 1 substance from publication PMC4898930.

The assay concerns the target Myc-N1. The experiment in a line: co-immunoprecipitation (IP with Myc antibody), quantification of western blot bands. The following applies: HEK293 cells, more than 3 independent experiments, read off a plot. For orientation: A western blot detects proteins with antibodies after separation by electrophoresis.

As for Fam65b-GFP (from UniProt Q80U16) RL/AA, the response (relative intensity) by setting is: (control (without HA-RhoC), parent: est. 1.0) 0.47; (with HA-RhoC co-expressed, parent: est. 1.7) 0.2.
